Laboratory results from the nanobody polyreactivity screen of Harvey et al. (2022).

Assay: yeast display, Sf9 membrane polyspecificity reagent, FACS + sequencing; frameworks hold sequencing errors
How it was run: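 Nanobodies from a synthetic yeast display library (Saccharomyces cerevisiae BJ5465), induced 36–48 hours with galactose, were stained 1 hour at 4 °C with 10% biotinylated, detergent-solubilized Sf9 membrane reagent, enriched on streptavidin microbeads, then FACS-sorted. Anti-HA (expression) and streptavidin (reagent binding) fluorescence set low and high (top ~1%) gates. Polyreactivity labels come from the gate of origin. Genes were colony-PCR amplified, MiSeq 2 × 250 sequenced and filtered by CDR length.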

Row | Sequence | polyreactivity (PSR sort gate)
1 | QVQLVESGAALVQAGGSLRLSCAASGFTFFTYAMGWYRQATGKDSELVAAITSSGGSTYYADSVKGRFTISRDNAKNTVYLQMNSLNPEDTAVYDCAASVYFWYDYWGQGTQGTVSS | high polyreactivity
2 | QVQLVESVGGLVQAGGSLRLICAASGSIFLDNAKGCYRQAPVKERELVSAISWGGGSTYYADSVKGRFTISRDNAKNTVYVQMNSLKPEDTAVYYCAAESYYYIRYFDYSRWMGYWGQGTQVTVSS | low polyreactivity
3 | QFQLLESWGGLVQAGGSLLFSCAASGSTFGYYAMGWYRKAPGKERELVAAISKSGGTTSYADSVKGRFTISRDNAKNTVYLQMISLKPEDTAVYYCSARSFRRGGLRGYDSWGQGTQVTVSS | high polyreactivity
4 | QVQLVESGGGLVQAGGSLRLSCAASGRTFYGYAMGWYRQAPGKERELVASIDGGGRTYYADSVKGRFTISRDNAKNTVYLQMNSLKPEYNGVYYCAKRSYQYGYPDGYGYWGQGTQVTVSS | low polyreactivity
5 | QVQLVESGGGLVQAGGSLRLSCAASGSTFTSYAMGWYRQAPGKERELVAAINYSGGSTYYADSVKGRFTISRDNAKNTVYLQMNSLKPEDTAVYYCAADGYIRQYVTYYYWGQGTQVTVSS | low polyreactivity
6 | QVQLQEGGGLVQAGGSLRLSCAASGYISSRPAMGWYRQAPGKERAFVATIADGTSTYYADSVKGRFTISRDNAINTVYLQMNSLKPEDTSVYYWAAAYNTEFDLSYWGQGTQVTVSS | high polyreactivity
7 | QVQLVESGGGLVQAGGSLRLSCAASGRTFLVYARGWYRQAPGKDRELVAAISISSGSTYYADSVKGRFTISRDNAKNTVYLQMNSLKPEDTAVYYCAAVYTYVKRASENDYWGQGTQVTVSS | low polyreactivity
8 | QVQLVESGGGLVQAGGSLRLSCAASGSTFAVYAMGWYRPAPGKERELVAGISSRGGRTYYADSVKGRFTISRDNAKNTVYLQMNSLKPEDTAVYYCAARFKGNPDRYGYWGQGTQVTVSS | high polyreactivity
9 | QVQLVESGGGLVQAGGSLLLSCAASGSIFITYAMGWYRLAPGKERELVAAIRDSGDRTYYADSVKGRFTISRDNAKNTVYLQMNSLKPEDTAVYDCNARWQEPLKYDYWGQGTQVTVSS | low polyreactivity
10 | QVQLVESGGGLVQAGGSLRLSCAASGGTFLAYAMGWSRQAPGKEREFVAGISNDGDTNYADSVKGRFTISRDNAKNTVYLQMNSLKPEDTAVYYCAALYRGYAVAASYYHWGQGTQVTVSS | high polyreactivity
11 | QVQLVESGGGLVQAGGSLRLSCAASGSIFRRNAMGWYRQAPGKERELVATITSDGSTDYADSVKGRFTISRDNAKNTVYFQMNSLKPEDTAVYYCAVAYLWRPYDFREFDYWGQGTQVTVSS | low polyreactivity
12 | QVQLQESGGGLEQAGGCLRLSCAASGSIFTYAVMGWYRQAHGKEHELVATIDTGSSTYYADSVKGRISISRDNAKNTLYLQMNSLKPEDTEVYYCAVNTYCRVRYRYWVQGTQVTVSS | high polyreactivity
13 | QVQLVESVGGLVQAGGSLRLSCDASGSIFASYAMGGYRQAPGKERELVAAISTSGVSTHYADSVNGRFTISRENAKNTVYLQLNSLKQEDTAVYYCAATPGYKRYYWGQGTQVTVSS | high polyreactivity
14 | QVQLVESGGGLVQAGGSLRLSCAASGFIFIGYAMGWYRHAPGKERELVAAISWSGGSTYYADSVKGRFTISRDNAKNTVYLQMNSLKPEDTAVYYCNAVLYRFAYNYWGQGTQVTVSS | low polyreactivity
15 | QVQLVESGGGLVQAGGSLRLSCAASGRIFGWYSMGWYRQAPGKERELVAAISSNGGSTYYADSVKGRFTISRDNAKNTVYLQMNSLKPEDTAVYFCAAVRVFQYKYDRFNYWGQGTQVTVSS | high polyreactivity
16 | QVQLVESGGGLVQAGGSLRLSCAASGRTFYYYAMGWYIQAPGKERELVATITKSSGSTSYADSVKGRFTISRDNAKNTVYLQMNSLKPEDTAVYYCAKVFRSGGVYRYDYWGQGTQVTVSS | high polyreactivity

Row | Sequence | polyreactivity (PSR sort gate)
17 | QVQLVESGGGLVQAGGSLRLSCAASGLTFTYNAMGGYRQAPGKERELVAAITSGGNTNYADSVKGRFTISRDNAKNTVYLQMKSLKPEDTAVYYCATDRKNGISGRYGYWGQGTQVTVSS | low polyreactivity
18 | QVQLVESGGGLVQAGGSLRLSCAASGRTFYAYAMGWYRQAPGKERELVATISSSDASTYYADSVKGRFTISRDNAKNTVNLQMNSLKPEETAVYYCNADFVRPSWARGRNNGLYYWGQGTQVTVSS | low polyreactivity
19 | QVQLVESGGGLVQAGGSLRLTCAASGLIFYRYAMGWYRQAPGKERELVATMSRSGGTYADSVKGRFTISRDNAKNTVYLQMNSLKPEDTAVYYCNARTLYAYITRDYWGQGTQVTVSS | high polyreactivity
20 | QVQLVESGGGLVQAGGSLRLSCAASGRIFYNYGMGWYRQAPGKERELVAAISSSGGSTSYADSVKGRFTISRDNAKNTVYLQMNSLKPEDTAVYYCAASWPRWWRFGYWGQGTQVTVSS | low polyreactivity
21 | QVQLVESGGGLVQAGGSLRLSCAASGSFFVDDAMGWYRQAPGKERELVATISSDVSTYYADSVKGRFTISRDNAKTTVYIQMNSLKPEDTAVYYCAATVSLHWAYSFSLYLEDDYWGQATQVTVSS | low polyreactivity
22 | QVQLVESGVGLDQAGGSLRLSCAASGSTFASYAMGWYRQAPGKERELVAAITNGGSTNYADSVKGRFTISRDNAKNTVYLLMNSLKPEDTAVYYCAAYDGFPRRYDYWGQGTQVTVSS | low polyreactivity
23 | QVQLVESGGGLVQAGGSLRLSCAASGSTFAYNAMGWYRQAPGKERELVASITVSVGSTYYADSVKGRFTISRDNAKNTVYLQMNSLKPEDTAVYYCAARVTRRSSTYWVPRTGYYYWGQGTQVTVSS | low polyreactivity
24 | QVQLVESGGGLVQAGGSLRLSCAASGFIFTQYAMGWYRQAPGKERELVAGITSSGNTYYADSVKGRFTISRDNAKNTVYLQMNSLKPEDTAVYYCAARSYVRRFDGGYWGQGTQVTVSS | high polyreactivity
25 | QVQLVESGGGLVHAGGSLRLSCAASGSTFIRNAMGWYRQAPGKERELVAAISSSGGRTYYADSVKGRITISRDNAKNTVYVQMNSLKPEDTAVYYCAARYVPPWGRRYYYWGQGTQVTVSS | high polyreactivity
26 | QVQLVESGGGLFQAGGSLRLSCAASGRIFGIYAMGWYRQAPGKERELVAAITRGSTYYADSVKGRFTISRDNAKNTVYLQMNSLKPEDTAVYYCNARPRVPGVLYLYDYLGQGTQVTVSS | high polyreactivity
27 | QVQLVESGGGLVQAGGSLRLSCAASGITFRRYAMGWYRQAPGKESELVAAITSSGGSTYYADSVKGRFTISRDNAKNTVYLLMISLKPEDTAVYYCAAAFFSQYYLYEYWGQGTQVTVSS | high polyreactivity
28 | QVQLVESGGGLVQAGGSLRLSCAASGSNFRPYAMGWYRPAPGKERELVAAISYRGGSTYYADSVKGRFTISRDNAKNTVYLQMNSLKPEDTAVYYCAADSREEGDYWGQGTQVTVSS | low polyreactivity
29 | QVQLVESGGGLVQAGGSLRLSCAASGSTFYKYAMGWYRQAPGKERELVAAISRGGSTYYADSVKGRFTISRDNAKNTVYLQMNSLKPEDTAVYYCAAETVSYYSKYDYWGQGTQVTVSS | low polyreactivity
30 | QVQLVESGGGLVQAGGSLRLSCAASGFIIIGYVMGWYRQAPGNERELVAAITSSGSGTYYADSVKGRVTISRDNAKNTVYLQMNSLKPEDTAVYYSAAQVRYGTATYHVSSYHYTRYGYWGQATQVTVSS | low polyreactivity
31 | QVQLVESGGGLVQAGGSLRLSCAASGSTFSYYDMGWYRQAPGKERELVAAISWNGGTTYYADSVKGRFTISRDNAKNTVYLQMNSLKPEDTAVYYCAATWDFYWAPYDSWGQGTQVTVSS | low polyreactivity
32 | QVQLVESGGGLVQAGGSLRLSCAASGRTFPVYAMGWYRQAPGKERELVAAIRARSVRTYYADSVKGRFTISRDNAKNTVYLQMNSLKPEDTAVYYCAAYYLNPGMDYWGQGTQVTVSS | high polyreactivity
